Reference: patent US20260132190A1 (Eli Lilly, published 2026)

Key:
cynomolgus monkey IL-34 [1] = molecular target: T1, cynomolgus monkey IL-34 (cynomolgus monkey, UniProt G7Q1L3 21-242); assay: competition ELISA, displacement of biotinylated cyno IL-34 from coated cyno CSF1R ECD-Fc
T1 construct: It was biotinylated in the CSF1R displacement ELISA; also called cyno IL-34
T1 sequence: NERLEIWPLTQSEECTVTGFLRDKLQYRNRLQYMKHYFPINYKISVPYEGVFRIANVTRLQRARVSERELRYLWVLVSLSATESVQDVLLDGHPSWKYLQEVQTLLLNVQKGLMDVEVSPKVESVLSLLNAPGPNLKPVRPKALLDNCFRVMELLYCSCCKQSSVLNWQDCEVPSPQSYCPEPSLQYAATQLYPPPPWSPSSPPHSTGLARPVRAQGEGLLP
Description: (§1) CSF1R extracellular domain proteins (hCSF1R_Fc commercially available from R&D Cat #329-MR, cynomolgus CSF1R ECD-Fc (AAA is a linker between CSF1R extracellular domain and Fc) (SEQ ID NO: 34)) can be bound to an ELISA plate at concentrations of 30 nM in order to capture soluble biotinylated IL-34 and allowed to bind for one hour. After washing and blocking plate, biotinylated IL-34 may be added, then detected via streptavidin conjugated peroxidase. Concentrations of labeled IL-34 near the 80% binding level (EC₈₀) (3.7 nM) may be used in conjunction with a range of antibody concentrations (0-100 nM) to determine concentration of antibody required to displace IL-34 from CSF1R. After 1 hr incubation, IL-34 bound to CSF1R is detected via streptavidin conjugated peroxidase. The antibodies are assayed (n=2) and the average and standard deviation at each concentration are calculated. The potency of an antibody to displace IL-34 from CSF1R is reported as IC₅₀ (nM) with the calculated confidence interval (CI) in Table 4 and Table 5.

human IL-34 [2] = molecular target: T2, human IL-34 (human, UniProt Q6ZMJ4 21-242); assay: cell-based or functional assay
T2 sequence: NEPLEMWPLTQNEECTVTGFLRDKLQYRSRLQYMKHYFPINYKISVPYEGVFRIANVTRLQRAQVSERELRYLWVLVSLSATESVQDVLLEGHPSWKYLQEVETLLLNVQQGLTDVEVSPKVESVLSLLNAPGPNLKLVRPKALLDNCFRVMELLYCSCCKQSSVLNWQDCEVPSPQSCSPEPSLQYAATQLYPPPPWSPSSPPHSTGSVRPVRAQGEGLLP

human IL-34 [3] = molecular target: T2, human IL-34; assay: SPR BIAcore 8K, 37 C, antibody captured on Protein A chip, IL-34 in solution
Description: (§2) Binding affinity of anti-IL-34 monoclonal antibodies of the present disclosure to human and/or cynomolgus monkey (cyno) IL-34 may be determined by methods known in the art. Briefly, the binding affinity and kinetics of the antibody are evaluated by surface plasmon resonance using BIAcore™ 8K (Cytiva) at 37° C. […] For each cycle, 200 μL IL-34 is flowed over the immobilized antibody at 100 μL/minute, and then dissociated for 20 minutes. The chip surface is regenerated with 50 μL of glycine buffer at pH 1.5 at a flow rate of 100 μL/minute. The data are fit to a 1:1 Langmiur binding mode to derive kon, koff and to calculate KD.

cynomolgus monkey IL-34 [4] = molecular target: T1, cynomolgus monkey IL-34; assay: as above
Description: as §2

human IL-34 [5] = molecular target: T2, human IL-34; assay: competition ELISA, displacement of biotinylated human IL-34 from coated hCSF1R_Fc
Description: as §1

IC50 (cynomolgus monkey IL-34 [1]): 975 pM
IC50 (ug/ml), neutralization of human IL-34 induced luciferase reporter activity (human IL-34 [2]): 0.0531 µg/mL
Kd (human IL-34 [3]): 31.2 pM
koff (human IL-34 [3]): 0.00026 s⁻¹
kon (human IL-34 [3]): 8.4e+06 M⁻¹ s⁻¹
Kd (cynomolgus monkey IL-34 [4]): 40.9 pM
koff (cynomolgus monkey IL-34 [4]): 0.0003 s⁻¹
kon (cynomolgus monkey IL-34 [4]): 7.9e+06 M⁻¹ s⁻¹
IC50 (human IL-34 [5]): 27.4 pM
B1: Antibody 1 (antibody, human IgG4 S228P, kappa, F234A L235A, V domains shown)
VH: EVQLLESGGGLVQPGGSLRLSCAASGFAFSSYRMSWVRQAPGKGLEWVSAISASGGKTYYADSVKGRFTISRDNSKNTLYLQMNSLRAEDTAVYYCAKRGYIWHAFDLWGRGTLVTVSS
VL: EIVLTQSPGTLSLSPGERATLSCRASQSVYSSYLAWYQQKPGQAPRLLIYGASSRATGIPDRFSGSGSGTDFTLTISRLEPEDFAVYYCQVVGSSPPFTFGGGTKVEIKR
notes: Human anti-IL-34 antibody with IgG4 PAA hinge/Fc and kappa light chain; also called Exemplified Antibody 1; exemplified antibody 1
